Assay results reported in the nanobody polyreactivity screen of Harvey et al. (2022).

Test: yeast display, Sf9 membrane polyspecificity reagent, FACS + sequencing; frameworks hold sequencing errors
Procedure, shortened: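 Nanobodies came from a synthetic yeast display library in Saccharomyces cerevisiae BJ5465, induced with galactose for 36–48 hours and stained for 1 hour at 4 °C with 10% biotinylated, detergent-solubilized Sf9 membrane reagent. Cells were enriched on streptavidin microbeads and then FACS-sorted, with low and high (top ~1%) gates set on anti-HA fluorescence for expression and streptavidin fluorescence for reagent binding. Each polyreactivity label reflects the gate a clone came from. Genes were amplified by colony PCR, sequenced by MiSeq 2 × 250 and filtered by CDR length.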

Sequence	polyreactivity (PSR sort gate)
QVQLVESGGGLVQAGGSLRLSCAASGSTFYKYAMGWYRQAPGKERELVAAITGSGGGTYYADSVKGRFTISRDNGKNTVYLQMNCLKPEDTAVYYCAARRVRSREAYDYWGQGTQVTVSS	high polyreactivity
QVQLVESGGGLVQAGGSLRLSCAASGRIFYGYTMVWYRQAPGKERELVAAISWSGGSTSYADSVKGRFTISRDNAKNTVYLQMKSMKPEDTAVYYCAVRYPGYRQYWGYTYDYWGQGTQVTVSS	high polyreactivity
QVQLVESGGGLVQAGGSLRLSCAASGSILTRNAMGWYRQAPGKERELVAAISGGGGRTYYADSVKGRFTISRDNAKNTVYLQMNSLKPEDTAVYYCAADDGYSSNEYDYWGQGTQVTVSS	low polyreactivity
QVQLVESGGGLVQAGGSLRLSCAASGSTFWGYVMGWYRQAPGKERELVAAITGSGGSTYYADSVKGRFTISRDNAKNTVYLQMNSLKPEDTAVYYCAAAWSKSTSRRYGYWGQGTQVTVSS	low polyreactivity
QVQLVESGGGLVQAGGSLRLSCAASGNILLFNAMGWYRQAPGKERELVATINQSGGRTYYADSVKGRFTISRDNAKNTVYLQMNSLKPEDTAVYYCAATYVYWTWGYDYWGQGTLVTVSS	low polyreactivity
QVKLVESGGGLVQAGGSLRLSCAASGSTFSPYVKAWYRQAPGKERELVAAIRYRGGSTYYADSVKGRFTISRDNAKNTVYLQMNSLKPEDTAVYYCATKRSHYSGGYWGQGTQVTVSS	high polyreactivity
QVQLVESGGGLVQAGGSLRLSCAASGRISGFYTMGWYRQAPGKERELVATITRSGSRTYYADSVKGRFTISRDNAKNTVYLQMNSLKPEDTAVYYCARSQAVYDGWFAKFGYWGQGTQVTVSS	low polyreactivity
QVQLVESGGGLVQAGGSHRLSCAASGITFSTYAKGGYRQAPGKERELVAAITKSGGSTYYADSVKGRFTISRDTAKNTVYLQMNSLKPEDTAVYYCAAEGDWRGSALYNYWGLGTQVTVSS	low polyreactivity
QVQLVESGGGLVQAGGSLRLSCAASGYIFFGNAMGWYRQAPGKERELVAAIRGRGTSTYYADSVKGRFTISRDNAKNTVYLQMNSLKPEDTAVYYFDADVVRSNFYGTFMYDYDYWGQGTQVTVSS	low polyreactivity
QVQLVESGGGLVQAGGSLRLSCAASGLNFWYYAMGWYRQAPGKERELVAAISWGGGSTYYADSVKGRFTISRDNAKNTVYLLMNSLKPEDTAVYYCAADSSYWYGTECDYWGQGTQVTVSS	high polyreactivity
QGQLVESGGGLVQAGGSLRLSCAASGFTFRGYAMGWYRQAPGKERELVATITSGGDTNDADSVKGRFTISRDNAKKTVYLQMNSLKPEDTAVYYCAAHDWEFVEEAGPVPWTPYDYWGQGTQVTVSS	low polyreactivity
QVQLVESGGGLVQAGGSLRLSCAASGSTFRFNAMGWYRQAPGKERELVATISYSSDSTYYAYSVKVRFTISRDNAKNTVYLQMNSLKPEDTAVYYCAADSGYARFDYWGQGTQVTVSS	high polyreactivity
QVQLVESGGGLVQAGGSLRLSCAASGRIFYWNPMGWYRQAHGKERELVAAISWSGGSTYYADSVKGRFTISRDNAKNTVYLQMNRLKPEDTAVYYCARKYRSPISALMTGDYWGQGTQVTVSS	low polyreactivity
QVQLVESGGGLVQAGGSLRLSCAASGRNFKIYTMGWYRQAPGKERELVAAISSSGRTYYADSVKGRFTISRDNAKNTVYLQMNSLKPEDTAVYYCAAVPYTRWKGADGDYWGQGTQVTVSS	high polyreactivity
QVQLVESGGGLVQAGGSLRLSCAASGRTFRYYAMGWYRQAPGKERELVAAINWNGGRTYYADSVKGRFTISRDNAKNTVYLQMNSLKPEDTAVYYCAAYHYRSPVTGDYWGQGTQVTVSS	high polyreactivity
QVQLVESGGGLVQAGGSLRLSCAASGSTFPVNTMGWYRQAPGKERELVAAISWSGGRTYYADSVKGRFTISRDNAKNTVYLQMNSLKPEDTAVYYCAAEWEGTYTTVPDEFNYWGQGTQVTVSS	high polyreactivity
QVQLVESGGGLVQAGCSLRLSCAASGSIFALYDMGWYRQAPGKERELVAAISYRGGRTYYADSVKGRFTISRDNAKNTVYLQMNSLKPEDTAVYYCATDFPGNFDYWGQGTQVTVSS	low polyreactivity
QVQLVESGGGLVQAGGSLRLSCAASGSTFDSYGMGWYRLAPGKERELVAPSTSRGASTNYADSVKGRFTISRDTAKNTVYLQMTSLKPEDTAVYYCNREVPWWLYKYDGHDYWGQATQVTVSS	low polyreactivity
QVQLVESGGGLVQAGGSLRLSCAASGFTFVYYAMGWYRQAPGKERELVATITRSGDSTYYADSVKGRFTISRDNAKNTVYLQMNSLKPEDTAVYYCAAQPGTASYAGDGDSWGQGTQVTVSS	low polyreactivity
QVQLVESGGGLVQAGGSLRLSCAASGSTLFWNAIGWYRQAPGKERELVAVISFSGVSTYYADSVKGRFTISRDNAKNTVYLQMNSLKPEDTAVYYCAAEVPHWPYYGRLHDRDYWGQGTQVTVSS	low polyreactivity
QVQLVESGGGLVQAGGSLRLSCAASGRTLRSYTMGWYRQAPGKERELVAAINWNGGTTYYADSVKGRFTISRDNAKNTVYLQMNSLKAEDTAVYYCAAESSRWHTYWYSLSNLGRGYWGQGTQVTVSS	high polyreactivity
RSGGGLVQAGGSLRLSCAPSGRIFKINAMGWYRQPPGKERALVARITRGGSTYYADSVKGRFTISRDNATNTVYLQMTSVKPEDTAVYYCAADDTGPYSNSYDYWGQGTQVTFSS	low polyreactivity

Sequence	polyreactivity (PSR sort gate)
QVQLVESGGGLVQAGGSLRLSCAASGSILLVYAMGWYRPAPGKERELVAAIRWSGGSTYYADSVKGRFTISRDNAKNTVYLQMNSLKPEDTAVYYCNAGESYSVKGGPYDSDYWGQGTQVTVSS	low polyreactivity
QVQLVQSGGGLVQAGGSLSLSCAASGSTFARNTMGWYRQAPGKERELVAAISYSGVTTYYADSVKGRFPISRDNEKNTVYLQMNSLKPEDTAVYYCAKLPYRRVDYGYWGQGTQVTVSS	high polyreactivity
QVQLVESDGGLDQAGGSLRLSCPASGIIFGYYVMGRYRQAPGKERELVASITSGGSTNYADSVKGRFTISRDNAKNTVYLQMNSLKPEDTAVYYCAAEERTDTIPGWRYPHDYWGQGTQVTVSS	low polyreactivity
QVQLVESGGGLVQAGGSLRLSCAASGRTFRKYAMGWYRQATGKERELVAAISWSGGSTYYANSVKGRFTISGDNAKNTVYLQINSLNPEDTAVYFCAVDCHPEEYDYWGQGTQVTVSS	low polyreactivity
QVQLVESGGGLVQAGGSLRLSCAASGSIFSWYAMGWYRQAPGKERELVAAISSRGGSTYYADSVKGRFTISRDNAKNTVYLQMNSLKPEDTAVYYCNTTYGYSTYWASGKYDYWGQGTQVTVSS	low polyreactivity
QVQLHESAGGLEQAGGCLSCTASGTIFGQGDMCWYLQAPGKEPELVGTINDGASTYYADSVKGRFTISRDKAKNTVYLQKNSLKPADTAVYYCSVFTDITTYFGYWGQGTQVTVSS	low polyreactivity
QVQLVESGGGLVQAGGSLRLRCAASGRTFSHYAMGWYRQAAGKESELVATITRNGGITYYADSVKGRFTISRDNAKNTVYLQMNSLKPEDTAVYYCNKRWGGPIQFDYWGQGTQVTVSS	low polyreactivity
QVQLVESGGGLVQAGGSLRLSCAASGIIFGGYAMGWYRQAPGKERELVARITSGGSTNYADSVKGRFTISRDNAKNTVYLQMNSLKPEDTAVYYCNARGGWSWRFYYWGQGTQVTVSS	high polyreactivity
QVQLVETGGGLVQAGGSLRLSCAASGSIFFLYAMGWYRQAPGKERELVAAISRTGSTYADSVKGRLTISRDNAKNTVYLQMNSLKPEDTAVYYCDAEYRYYWYGTMNYWGQGTQVTVSS	low polyreactivity
HVQLVESGGGLVQAGGSLRLSCAASGFIIGYYAMGWYRQAPGKERELVASITWSTTSTYYADSVKGRFTISRDNAKNTVYLQMNSLKPEDTAVYYCAADLQSKLPSSIYIGDYWGQGTQVTVSS	low polyreactivity
QVQVVESGGGLVQTGGSLRLSCAASGSTFRRYDMGWYRPAPGKEWELVAAISVSGGNTYYADSVKGRFTISRDNAKNTVYLQMNSLKPEDTAVYYCATSRWVDNKYTLRSRYYYWGQGTQVTVSS	high polyreactivity
QVQLGESGGGLVQAGGSLRLTCAASGITFAYYVMGWYRKAPGKERELVAASTRSGDFTSYADSVKGRFTISRDNAKNTVYFQMNSLKPEDTAVYYCNARRGYQSRRYNYWGQGTQVTVSS	high polyreactivity
QVQLVESGGGLVQAGGSHRLSCAASGRILYRNVMGWYRQAHGKERELVAGISFTGGSTYYADSVKRRFTISRDNAKNTVYLQMNSLKPEDTAVYYCAATYSSYWARYYYWGQGTPVTVSS	high polyreactivity
QDQLVESGGGLVQAGGSLRLSCAASARIFERYAKGWYRPPPGKEMELVAAISYRGGRTYYADSVKGRFTISRVNAKNTVYLQMNSLKPEDTAVYYCAAYTYFRDWAEYDYWGQGTQVTVSS	high polyreactivity
QVQLVESGGGLVQAGGSLRISCADSGSIFTYNAMGWYRQAPGKERELVAAITSSSGSSTYADSVKGRFTISRDNAKYTVYLQMNSLKPEDTAVYYCAAPILSFPSPYVQYDYWGQGTQVTVSS	low polyreactivity
QVQLVESGGGLVQAGGSLRLSCAASGYTFWLYAMGWYRQAPGKERELVATISRRAGTTYYADSVKGRFTISRDNAKNTVYLQMNSLKPEDTAVYYCNTDGYPRLYIYDYWGQGTQVTVSS	low polyreactivity
QVQLVESGGGLVQAGGSLRLSCAASGSIFQRYAMGWYRQAPGKEREFVAAISGRGGSTYYADSVKGRFTISRDNAKNTVYLQMNSLKPEDTAVYYCAVRGRSYVRTYDYWGQGTQVTVSS	high polyreactivity
QVQLVESGGGLVQAGGSLRLSCAPSGATFRRNAMGWYRQAPGKERELVAAITWRGGSTSYADSVKGRFTISRDNAKNTVYLQMNSLKREDTAVYYCAAVKGHSQVLSYGYWGQGTQVTVSS	low polyreactivity
QVQLVESGGGLVQAGGSLRLSCAASGFIFSRYAMGWYRQAPGKERELVAAISDYGGRTYYADSVKGRFTISRDNAKNTVYLQMNSLKPEDTAVYYCAADLEGYYPYEYWGQGTKVTVSS	high polyreactivity
QVQLVESGGGLVQSGGSLRLSCVASGRTFRWYPMGWYRQEPGKERELVATITLNGGSTYYADSVKGRFTISRDNEKNTVYLQMNSLKPEDTAVYYCNRGTNVVRRGVYSFGYDYWGHGTQVTVSS	low polyreactivity
QVQLVESGGGLVQAGGRLRLSCAASGSTFSWYVMGWYRQAPGKERELVAAITRGGGSTYYADSVKGRFTISRDNAKNTVYLQMNSLKPEDTAVYYCNADSNIPDYDYWGQGTQVTVSS	low polyreactivity
